Key:
Assay type in all cases: in vivo, Cynomolgus monkey
APOC3 [1] = test: Serum APOC3 by Roche Cobas assay (Example 5); conditions: for APOC3 (serum): 6.0 mg/kg SQ on Day 1; for inhibition of serum APOC3 relative to Day −6: single 6.0 mg/kg SQ on Day 1
Procedure: (§1) On Day 1, three (n=3) male Cynomolgus monkey test animals for each test group were dosed with APOC3-PCSK9 RNAi agents formulated in saline (at 6.0 mg/kg), via subcutaneous (SQ) injection with syringe and needle in the mid-scapular region, at […] dose volume.
(§2) Serum blood (approximately 5.0 mL) was collected on Day −6, Day 8, Day 15, Day 22, Day 29, Day 36, Day 43, Day 50, […], prior to liver biopsy sample collections or dose administration (when applicable), and from any animals found in moribund condition or sacrificed at an unscheduled interval. The collection site was the femoral vein, with a saphenous vein as an alternative collection site.
Serum APOC3 was quantified via Roche Cobas® assay for APOC3 in accordance with manufacturer's instructions.

PCSK9 [2] = test: Serum PCSK9 by ELISA (Example 5); conditions: for Rel. Exp. PCSK9 (serum, ELISA, normalized to pre-dose): 6.0 mg/kg SQ on Day 1; for inhibition of serum PCSK9: single 6.0 mg/kg SQ on Day 1
Procedure: as §1, §2
Serum PCSK9 was quantified via ELISA (R&D Systems, Cat. #DPC900) in accordance with manufacturer's instructions. The relative PCSK9 levels were normalized to pre-dose Day −6.

PCSK9 [3] = test: Liver PCSK9 mRNA expression by qPCR of liver biopsies (Example 5); conditions: for Rel. Exp. PCSK9 (liver mRNA, qPCR, normalized to Day −6): 6.0 mg/kg SQ on Day 1
Procedure: as §1
(§3) The liver biopsies and serum collected from the test animals were used for analysis for APOC3 and PCSK9 expression and additional biological parameters. Liver biopsies were collected on Day −6, Day 15, Day 36, Day 50, and Day 64 (post-mortem).
(§4) Liver biopsies were collected as a sedated procedure. Animals were fasted overnight (at least 12 hours but less than 18 hours) prior to each liver biopsy collection. For each animal, collected liver biopsy samples were of approximately 100 mg each (80 to 120 mg).
(§5) The collected liver biopsies were analyzed for APOC3 and PCSK9 expression and additional biological parameters. Liver APOC3 and PCSK9 mRNA expression levels were quantified via qPCR, using cARL1 as endogenous control gene, normalized to Day-6 (pre-dose).

APOC3 [4] = test: Liver APOC3 mRNA expression by qPCR of liver biopsies (Example 5); conditions: for Rel. Exp. APOC3 (liver mRNA, qPCR, normalized to Day −6): 6.0 mg/kg SQ on Day 1; for inhibition of liver APOC3 transcripts: single 6.0 mg/kg SQ on Day 1
Procedure: as §1, §3, §4, §5

B1: AC003791: APOC3-PCSK9 dimer RNAi agent conjugate with (NAG52)s ligand, SEQ ID NO 14-16 (nucleic acid)
chain 1: AAGUUACAAAAGCAAAACG
chain 2: UCACUGAGAAUACUGUCCC
chain 3: CGUUUUGCUUUUGUAACUUGGGACAGUAUUCUCAGUNA
modifications: (NAG52)s ligand conjugate; modified_base 1 OTHER; 5'-cyclopropyl phosphonate-2'-O-methyladenosine; modified_base 1^2 OTHER; phosphorothioate linkage; modified_base 2 OTHER; 2'-fluoroadenosine; modified_base 2^3 OTHER; modified_base 3 gm; modified_base 4 um; modified_base 5 um; modified_base 6 OTHER; 2'-O-methyladenosine; modified_base 7 cm; modified_base 8 OTHER; modified_base; 5'-cyclopropyl phosphonate-2'-O-methyluridine; 2'-fluorocytidine; phosphor
APOC3 (serum) (APOC3 [1]; Day 1): 6.48 mg/dL | APOC3 (serum) (APOC3 [1]; Day 8): 4.57 mg/dL | APOC3 (serum) (APOC3 [1]; Day 15): 4.03 mg/dL | APOC3 (serum) (APOC3 [1]; Day 22): 2.92 mg/dL | APOC3 (serum) (APOC3 [1]; Day 29): 3.69 mg/dL | inhibition of serum APOC3 relative to Day −6 (APOC3 [1]; Day 36 (nadir)): approximately 51% | APOC3 (serum) (APOC3 [1]; Day 36): 2.96 mg/dL | APOC3 (serum) (APOC3 [1]; Day 43): 3.18 mg/dL | APOC3 (serum) (APOC3 [1]; Day 50): 3.32 mg/dL | APOC3 (serum) (APOC3 [1]; Day 57): 4.56 mg/dL | APOC3 (serum) (APOC3 [1]; Day 64): 4.65 mg/dL | inhibition of serum APOC3 relative to Day −6 (APOC3 [1]; Day 64): approximately 24% | APOC3 (serum) (APOC3 [1]; Day −6 (pre-dose baseline)): 6.15 mg/dL | Rel. Exp. PCSK9 (serum, ELISA, normalized to pre-dose) (PCSK9 [2]; Day 1): 1.161 | Rel. Exp. PCSK9 (serum, ELISA, normalized to pre-dose) (PCSK9 [2]; Day 8): 0.682 | Rel. Exp. PCSK9 (serum, ELISA, normalized to pre-dose) (PCSK9 [2]; Day 15): 0.415 | Rel. Exp. PCSK9 (serum, ELISA, normalized to pre-dose) (PCSK9 [2]; Day 22): 0.339 | Rel. Exp. PCSK9 (serum, ELISA, normalized to pre-dose) (PCSK9 [2]; Day 29): 0.353 | inhibition of serum PCSK9 (PCSK9 [2]; Day 36 (nadir)): approximately 67% | Rel. Exp. PCSK9 (serum, ELISA, normalized to pre-dose) (PCSK9 [2]; Day 36): 0.323 | Rel. Exp. PCSK9 (serum, ELISA, normalized to pre-dose) (PCSK9 [2]; Day 43): 0.375 | Rel. Exp. PCSK9 (serum, ELISA, normalized to pre-dose) (PCSK9 [2]; Day 50): 0.759 | Rel. Exp. PCSK9 (serum, ELISA, normalized to pre-dose) (PCSK9 [2]; Day 57): 0.431 | Rel. Exp. PCSK9 (serum, ELISA, normalized to pre-dose) (PCSK9 [2]; Day 64): 0.538 | inhibition of serum PCSK9 (PCSK9 [2]; Day 64): approximately 46% | Rel. Exp. PCSK9 (serum, ELISA, normalized to pre-dose) (PCSK9 [2]; Day −6 (pre-dose)): 0.925 | Rel. Exp. PCSK9 (liver mRNA, qPCR, normalized to Day −6) (PCSK9 [3]; Day 15): 0.692 | Rel. Exp. PCSK9 (liver mRNA, qPCR, normalized to Day −6) (PCSK9 [3]; Day 36): 0.908 | Rel. Exp. PCSK9 (liver mRNA, qPCR, normalized to Day −6) (PCSK9 [3]; Day 50): 1.271 | Rel. Exp. PCSK9 (liver mRNA, qPCR, normalized to Day −6) (PCSK9 [3]; Day 64): 0.351 | inhibition of liver PCSK9 transcripts (PCSK9 [3]; Day 64, single 6.0 mg/kg SQ on Day 1): approximately 64% | Rel. Exp. PCSK9 (liver mRNA, qPCR, normalized to Day −6) (PCSK9 [3]; Day −6 (pre-dose baseline)): 1.000 | Rel. Exp. APOC3 (liver mRNA, qPCR, normalized to Day −6) (APOC3 [4]; Day 15): 0.408 | Rel. Exp. APOC3 (liver mRNA, qPCR, normalized to Day −6) (APOC3 [4]; Day 36): 0.611 | Rel. Exp. APOC3 (liver mRNA, qPCR, normalized to Day −6) (APOC3 [4]; Day 50): 0.336 | inhibition of liver APOC3 transcripts (APOC3 [4]; Day 50): approximately 66% | Rel. Exp. APOC3 (liver mRNA, qPCR, normalized to Day −6) (APOC3 [4]; Day 64): 0.500 | inhibition of liver APOC3 transcripts (APOC3 [4]; Day 64): approximately 50% | Rel. Exp. APOC3 (liver mRNA, qPCR, normalized to Day −6) (APOC3 [4]; Day −6 (pre-dose baseline)): 1.000

B2: AC005898: APOC3-PCSK9 dimer RNAi agent conjugate with (NAG52)s ligand, SEQ ID NO 17-19 (nucleic acid)
chain 1: ACAAAAGCAAAACAGGUCC
chain 2: UCACUGAGAAUACUGUCCC
chain 3: GGACCUGUUUUGCUUUUGUGGGACAGUAUUCUCAGUNA
modifications: (NAG52)s ligand conjugate; modified_base 1 OTHER; 5'-cyclopropyl phosphonate-2'-O-methyladenosine; modified_base 1^2 OTHER; phosphorothioate linkage; modified_base 2 OTHER; 2'-fluorocytidine; modified_base 2^3 OTHER; modified_base 3 OTHER; 2'-O-methyladenosine; modified_base 3^4 OTHER; modified_base 4 OTHER; 2'-fluoroadenosine; modified_base 5 OTHER; 5'-cyclopropyl phosphonate-2'-O-methyluridine; phosphor
APOC3 (serum) (APOC3 [1]; Day 1): 6.10 mg/dL | APOC3 (serum) (APOC3 [1]; Day 8): 4.61 mg/dL | APOC3 (serum) (APOC3 [1]; Day 15): 3.59 mg/dL | inhibition of serum APOC3 relative to Day −6 (APOC3 [1]; Day 22 (nadir)): approximately 40% | APOC3 (serum) (APOC3 [1]; Day 22): 3.50 mg/dL | APOC3 (serum) (APOC3 [1]; Day 29): 4.16 mg/dL | APOC3 (serum) (APOC3 [1]; Day 36): 3.59 mg/dL | APOC3 (serum) (APOC3 [1]; Day 43): 4.07 mg/dL | APOC3 (serum) (APOC3 [1]; Day 50): 3.96 mg/dL | APOC3 (serum) (APOC3 [1]; Day 57): 4.94 mg/dL | APOC3 (serum) (APOC3 [1]; Day 64): 4.47 mg/dL | inhibition of serum APOC3 relative to Day −6 (APOC3 [1]; Day 64): approximately 23% | APOC3 (serum) (APOC3 [1]; Day −6 (pre-dose baseline)): 5.84 mg/dL | Rel. Exp. PCSK9 (serum, ELISA, normalized to pre-dose) (PCSK9 [2]; Day 1): 1.004 | Rel. Exp. PCSK9 (serum, ELISA, normalized to pre-dose) (PCSK9 [2]; Day 8): 0.724 | Rel. Exp. PCSK9 (serum, ELISA, normalized to pre-dose) (PCSK9 [2]; Day 15): 0.561 | Rel. Exp. PCSK9 (serum, ELISA, normalized to pre-dose) (PCSK9 [2]; Day 22): 0.560 | Rel. Exp. PCSK9 (serum, ELISA, normalized to pre-dose) (PCSK9 [2]; Day 29): 0.617 | Rel. Exp. PCSK9 (serum, ELISA, normalized to pre-dose) (PCSK9 [2]; Day 36): 0.426 | Rel. Exp. PCSK9 (serum, ELISA, normalized to pre-dose) (PCSK9 [2]; Day 43): 0.790 | Rel. Exp. PCSK9 (serum, ELISA, normalized to pre-dose) (PCSK9 [2]; Day 50): 0.728 | Rel. Exp. PCSK9 (serum, ELISA, normalized to pre-dose) (PCSK9 [2]; Day 57): 0.762 | Rel. Exp. PCSK9 (serum, ELISA, normalized to pre-dose) (PCSK9 [2]; Day 64): 0.928 | Rel. Exp. PCSK9 (serum, ELISA, normalized to pre-dose) (PCSK9 [2]; Day −6 (pre-dose)): 1.140 | Rel. Exp. PCSK9 (liver mRNA, qPCR, normalized to Day −6) (PCSK9 [3]; Day 15): 0.614 | Rel. Exp. PCSK9 (liver mRNA, qPCR, normalized to Day −6) (PCSK9 [3]; Day 36): 0.520 | Rel. Exp. PCSK9 (liver mRNA, qPCR, normalized to Day −6) (PCSK9 [3]; Day 50): 0.528 | Rel. Exp. PCSK9 (liver mRNA, qPCR, normalized to Day −6) (PCSK9 [3]; Day 64): 0.457 | Rel. Exp. PCSK9 (liver mRNA, qPCR, normalized to Day −6) (PCSK9 [3]; Day −6 (pre-dose baseline)): 1.000 | Rel. Exp. APOC3 (liver mRNA, qPCR, normalized to Day −6) (APOC3 [4]; Day 15): 0.545 | Rel. Exp. APOC3 (liver mRNA, qPCR, normalized to Day −6) (APOC3 [4]; Day 36): 0.929 | Rel. Exp. APOC3 (liver mRNA, qPCR, normalized to Day −6) (APOC3 [4]; Day 50): 0.491 | Rel. Exp. APOC3 (liver mRNA, qPCR, normalized to Day −6) (APOC3 [4]; Day 64): 0.535 | Rel. Exp. APOC3 (liver mRNA, qPCR, normalized to Day −6) (APOC3 [4]; Day −6 (pre-dose baseline)): 1.000

Source: patent US20260176621A1, “Metabolically Stabilized Carbohydrate Targeting Ligands For Oligonucleotide Conjugates” (Arrowhead Pharmaceuticals, Inc., priority 2023, published 2026)
